Source: article PMC2756985 (Biochemistry, 2009)

Test: Oxygen dissociation rates of DevS proteins, stopped flow
Type: binding, Mycobacterium tuberculosis

B1: full-length Y171F DevS (protein, UniProt P9WGK3 1-578, looked up, variant Y171F)
chain: MTTGGLVDENDGAAMRPLRHTLSQLRLHELLVEVQDRVEQIVEGRDRLDGLVEAMLVVTAGLDLEATLRAIVHSATSLVDARYGAMEVHDRQHRVLHFVYEGIDEETVRRIGHLPKGLGVIGLLIEDPKPLRLDDVSAHPASIGFPPYHPPMRTFLGVPVRVRDESFGTLFLTDKTNGQPFSDDDEVLVQALAAAAGIAVANARLYQQAKARQSWIEATRDIATELLSGTEPATVFRLVAAEALKLTAADAALVAVPVDEDMPAADVGELLVIETVGSAVASIVGRTIPVAGAVLREVFVNGIPRRVDRVDLEGLDELADAGPALLLPLRARGTVAGVVVVLSQGGPGAFTDEQLEMMAAFADQAALAWQLATSQRRMRELDVLTDRDRIARDLHDHVIQRLFAIGLALQGAVPHERNPEVQQRLSDVVDDLQDVIQEIRTTIYDLHGASQGITRLRQRIDAAVAQFADSGLRTSVQFVGPLSVVDSALADQAEAVVREAVSNAVRHAKASTLTVRVKVDDDLCIEVTDNGRGLPDEFTGSGLTNLRQRAEQAGGEFTLASVPGASGTVLRWSAPLSQ
modifications: full-length
O2 koff: 3.85 ± 0.69 ^b s^−1
